Measured values published in patent US20180044422A1 (NEW YORK UNIVERSITY, published 2018).

Columns and labels:
[1] = molecular target: T1, Galectin-3 (Biolegend) (Mus musculus (Mouse), UniProt P16110 2-264); assay: ELISA, plate coated with Galectin-3, Dectin-1 IgG Fc at 2.5 µg/ml (concentration from paragraph 191, not on the sheet), detection with anti-IgG-HRP [cont.) I]
T1 construct: The sentence reads 'recombinant mouse Galectin-9 ..., Galectin-3, or Galectin-4'; whether 'mouse' also applies to Galectin-3 is not clear
T1 sequence (P16110 2-264 limits assumed): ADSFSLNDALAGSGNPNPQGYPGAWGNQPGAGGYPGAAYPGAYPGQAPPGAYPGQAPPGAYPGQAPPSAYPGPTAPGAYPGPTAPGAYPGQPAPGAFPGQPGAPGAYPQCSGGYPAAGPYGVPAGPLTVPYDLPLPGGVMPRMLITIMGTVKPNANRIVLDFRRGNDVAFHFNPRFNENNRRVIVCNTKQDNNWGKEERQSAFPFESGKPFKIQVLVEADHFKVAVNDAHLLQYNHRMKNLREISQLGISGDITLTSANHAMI
Procedure: (§1) To investigate if Galectin-9 can bind with Dectin-1, Protein G-magnet beads (2 ml; Dynabeads) were loaded with Dectin-1 IgG Fc (1 mg) or control IgG Fc before washing and blocking. Subsequently, beads were incubated with recombinant Galectin-9 ([…]; R&D Systems) for 30 min, washed, and stained with PE-conjugated anti-Galectin-9 (Biolegend, San Diego Calif.). Galectin-9 specific staining was determined by flow cytometry. To investigate the interaction between Galectin-9 and Dectin-1 by ELISA, plates (Maxisorp, Nunc, St. Louis, Mo.) were coated with recombinant mouse Galectin-9 ([…]; R&D Systems, Minneapolis, Minn.), Galectin-3, or Galectin-4 (both […]; Biolegend) for 16 hours at 4° C., blocked with 1% BSA/PBS for 1 hour, and incubated with increasing doses of Dectin-1 IgG Fc or control IgG Fc for 2 hours. The Galectin-bound Dectin-1 IgG Fc was detected with anti-IgG-HRP. […] Bead-bound precipitates were resuspended with loading buffer, resolved by SDS-PAGE under reduced conditions for western blotting using mAbs specific for Galectin-9. […] Dectin-1 signaling was measured by detection of secreted embryonic alkaline phosphatase. […] Syk phosphorylation was measured by flow cytometry at 3 hours.

[2] = molecular target: T2, Galectin-4 (Biolegend) (Mus musculus (Mouse), UniProt Q8K419 1-326); assay: ELISA, plate coated with Galectin-4, Dectin-1 IgG Fc at 2.5 µg/ml (concentration from paragraph 191, not on the sheet), detection with anti-IgG-HRP [cont.) I]
T2 construct: The sentence reads 'recombinant mouse Galectin-9 ..., Galectin-3, or Galectin-4'; whether 'mouse' also applies to Galectin-4 is not clear
T2 sequence: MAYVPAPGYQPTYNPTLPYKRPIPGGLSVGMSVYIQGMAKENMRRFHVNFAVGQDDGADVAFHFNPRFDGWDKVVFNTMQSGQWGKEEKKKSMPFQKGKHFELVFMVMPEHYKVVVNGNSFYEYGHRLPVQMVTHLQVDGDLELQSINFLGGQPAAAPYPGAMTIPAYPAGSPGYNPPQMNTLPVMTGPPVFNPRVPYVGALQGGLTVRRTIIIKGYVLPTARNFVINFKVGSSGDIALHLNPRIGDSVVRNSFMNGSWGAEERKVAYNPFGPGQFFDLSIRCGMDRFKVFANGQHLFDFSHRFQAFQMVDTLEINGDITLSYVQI
Procedure: as §1

B1: human IgG Fc-conjugated Dectin-1 fusion protein (murine Dectin-1 IgG Fc; fc-mdec1a, InvivoGen) (Fc fusion, mouse, UniProt Q6QLQ4 69-244, looked up)
chain: EYGHNSGRNPEEKDNFLSRNKENHKPTESSLDEKVAPSKASQTTGGFSQPCLPNWIMHGKSCYLFSFSGNSWYGSKRHCSQLGAHLLKIDNSKEFEFIESQTSSHRINAFWIGLSRNQSEGPWFWEDGSAFFPNSFQVRNTAPQESLLHNCVWIHGSEVYNQICNTSSYSICEKEL
notes: Bought reagent (fc-mdec1a; InvivoGen); also called Dectin-1 Fc; not shown: human IgG Fc
binding result [1]: no binding (tested: 2.5 µg/ml)
binding result [2]: no binding (tested: 2.5 µg/ml)
